Target: T1, CTCF11ZF (UniProt Q61164 266-579)
T1 sequence: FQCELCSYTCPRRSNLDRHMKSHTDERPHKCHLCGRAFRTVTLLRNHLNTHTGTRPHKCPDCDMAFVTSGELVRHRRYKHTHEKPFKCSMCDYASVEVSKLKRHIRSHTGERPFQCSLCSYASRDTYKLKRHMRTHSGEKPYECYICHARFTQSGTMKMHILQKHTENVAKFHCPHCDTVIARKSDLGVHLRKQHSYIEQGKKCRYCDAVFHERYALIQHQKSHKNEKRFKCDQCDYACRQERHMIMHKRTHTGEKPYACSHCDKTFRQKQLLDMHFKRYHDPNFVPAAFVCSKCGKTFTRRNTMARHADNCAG
Test: FP competition

B1: LowOc1_Scrambled (dsDNA)
DNA 1: CCCTGGTCGGTGTGGCTGGCGACACCTCGCACTCTG
DNA 2: CAGAGTGCGAGGTGTCGCCAGCCACACCGACCAGGG
binding result: no binding
